Data as given in the nanobody polyreactivity screen of Harvey et al. (2022).

Assay: yeast display, Sf9 membrane polyspecificity reagent, FACS + sequencing; frameworks hold sequencing errors
In short: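 Nanobodies from a synthetic yeast display library (Saccharomyces cerevisiae BJ5465), induced 36–48 hours with galactose, were stained 1 hour at 4 °C with 10% biotinylated, detergent-solubilized Sf9 membrane reagent, enriched on streptavidin microbeads, then FACS-sorted. Anti-HA (expression) and streptavidin (reagent binding) fluorescence set low and high (top ~1%) gates. Polyreactivity labels come from the gate of origin. Genes were colony-PCR amplified, MiSeq 2 × 250 sequenced and filtered by CDR length.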

Row | Sequence | polyreactivity (PSR sort gate)
1 | QVQLVESGGGLVQAAGSLRLSCAASGSIFNRSTMGWSRQAPGKERELVAGISRGGTTYYADSVKGRFTISRDNAKNTVYLQMNSLKPEDTAVFYCAADYGLLYGQLWGYGYWGQGTQVTVSS | high polyreactivity
2 | QVQLVESGGGLVQAAGSLRLSCAASGSTFPYYAMGWYRQAPGQERELVAAIPRSGGSTYSADSVKGRFTISRDHAKNTVYLQMNSLKPEDTAVYYCAAKLAQRYFYRYDYWGPGTQVTVSS | high polyreactivity
3 | QVQLVESGGGLVQAAGSLRLSCAASGSTFYRNAMGWYRQAPGKERELVASINNGGSTYYADSVKGRFTISRDNAKNTVYLQMNSLKPEDTAVYYCAATESWDYDYWGQGTQVTVSS | low polyreactivity
4 | QVQLVESGGGLVQAAGSLRLSCAPSGSIYNYTIGWYRQAPGKERELVAAISRSGTRTYYADSVKGRFTISRDNAKNTVYLQMNSLKPEDTAVYYCAARILPPGDNVDDDYWGQGTQVTVSS | high polyreactivity
5 | QVQLVESGGGLVQAAGSLRLSCDASGRIFAYYAMGWYRQAPGKERELVAAISRSGVSTYYADSVKGRFTISRDNAKNTVYLQMNSLKPEDTAVYYCAARWRSGFTSGDYWGQGTQVTVSS | low polyreactivity
6 | QVQLVESGGGLVQAAGSLRVSCAASGSIFYSNVMGWYRTEPGKERELVARISDAGSTNYADSVKGRFTISRDNAKNTVYLQMNSLKPEDTAVYYCNARLVIYTYDYWGQGTQVTVSS | low polyreactivity
7 | QVQLVESGGGLVQAAGSLRVSCAASGSTFSWNPMGWSIQAPGKERELVAASTSGGRTYYADSVKGRFTISRDNAKNTVYLQMNSLKPADTAVYYCAAYATIYRDMGYWGHGTQVTVSS | high polyreactivity
8 | QVQLVESGGGLVQAGASLRLSCAASGFIFAINTMGWNLQAPGKETELVAGINWRGSSKYYADSVKGRFTISRDNAKNTVYLQMNSLKPEDTAVYYCAARRFWGSDYDYWGLGTQVTVSS | high polyreactivity
9 | QVQLVESGGGLVQAGASLRLSCAASGFTFDENAMGWYRQAPGINYSGASTYYAHSVKGRFTISRDNAKNTVYIHMNSLQPEDTAVYYCAAEVVAQMNYWGQGTQVTVSS | low polyreactivity
10 | QVQLVESGGGLVQAGASLRLSCAASGFTFGTYVMGWYRQAPGKERELVARITYGGGRTYYADSVKGRFTISRDNAKNTVYLQMNSLNPEDTAVYYSNARVTYSRYFKGYNYWGQGTQVTVSS | high polyreactivity
11 | QVQLVESGGGLVQAGASLRLSCAASGFTFGWYAMGWSRQARGKERELVAAISYSGGSTYYADSVKGRFTISRDNAKNTVYLQMISLKPEDTAVYYCAALYTGDSGYWGQGTQVTVSS | high polyreactivity
12 | QVQLVESGGGLVQAGASLRLSCAASGGIFYVYDMGWYRQAPGKERELVAVITFTGGSTYYADSVKGRYTISRDNAKNSVYFQKNRLKPEDTAVYYCAADAYQSAYSGEYDVYTEYDYWGQGTQVTVSS | low polyreactivity
13 | QVQLVESGGGLVQAGASLRLSCAASGRIFGRNAMGWYRQAPGKERELVAAISSGSGSTYYADSVKGRFTISRDNAKHTVYLQLNSLIPEDTAVYYCAATVSTYLAWRGYWGQGTQVTVSS | high polyreactivity
14 | QVQLVESGGGLVQAGASLRLSCAASGRIFGVYAMGWYRQAPGKDRELVAGINGGDSTYYADSVKGRFTISRDNAKNTVYLQINSLKPEDTAVYYCAAQADESGSNYDYWGQGTQVTVSS | low polyreactivity
15 | QVQLVESGGGLVQAGASLRLSCAASGRIFNIYALGWYRQAPGKERELVADITSGGTTYADSVKWRFTISRDNAKNTVYLQMNSLKPEDTAVYYCAAVYRYRNRRDYDYWGQGTQVTVSS | high polyreactivity
16 | QVQLVESGGGLVQAGASLRLSCAASGRIFSKNAMGWYRQAPGKERELVAAISANTGSTYYADSVKGRFTISRDNAKNTVYLQMNILKPEDTAVYYCATTWTIRRYRYTPRLVDYWGQGTQVTVSS | low polyreactivity
17 | QVQLVESGGGLVQAGASLRLSCAASGRTFGYYAMGWYRQAPGKERELVATISRRGGRTYYADSVKGRFTISRDNAKNTVYLQMNSLKPEDTAVYYCNKYLASYSYSDLVYWGQGTQVTVSS | high polyreactivity
18 | QVQLVESGGGLVQAGASLRLSCAASGRTFNVYAMGWYRQAPGKERELVASISSGTSTNYADSVKGRFTISRDNAKNTVYLQMNSLKPEDTAVYYCNADFVWNGYSGRIRDYYWGQGTQVTVSS | low polyreactivity
19 | QVQLVESGGGLVQAGASLRLSCAASGRTFSNYEMGSYRQAPGKERELVAAISGTGGTTYYADSVKGRFTISRVNEKNTVYLQMNSLKPEDTAVYYCAARSHTGYFPPSYYSGQGTQVTVSS | high polyreactivity
20 | QVQLVESGGGLVQAGASLRLSCAASGRTFWYNAMGGYRQAPGKERELVAAISSTGGRTYYADSVKGRFTISRDNAKNTVYLQMNSLKPEDTAVYYCAARQLSSHYDYWGQGTQVTVSS | low polyreactivity
21 | QVQLVESGGGLVQAGASLRLSCAASGSIFKDNAMGWYRQAPGKERELVAAISWNGGSTYYADSVKGRFTISRDNAKNTVYLHMNSLKPEDTAVYYCATRIYGWSFGSWYKYDYWGQGTQVTVSS | low polyreactivity
22 | QVQLVESGGGLVQAGASLRLSCAASGSIFYGNTMGWYRQAPGKERELVAAISSGGSTKYADSVKGRFTISRDNAKNTVYLQMNSLKPEDTAVYYCAADLPRYWVTWMDYWGQGTQVSVSS | low polyreactivity

Row | Sequence | polyreactivity (PSR sort gate)
23 | QVQLVESGGGLVQAGASLRLSCAASGSIFYHNTMGWYRQAPGKERELITYYADSVKRRFTISRDNAKNTVYLQMNSLKPEDTAVYYCAASPVYRTGPGDYDYWGQGTQVTVSS | low polyreactivity
24 | QVQLVESGGGLVQAGASLRLSCAASGSISKSYAMGWYRQAPGKERELVAAISWRGGSTYADSVKGRFTISRDNAKNTVYLQMNSLKPEDTAVYYCAATNYGTFWGGQSERYDYWGQGTQVTVSS | low polyreactivity
25 | QVQLVESGGGLVQAGASLRLSCAASGSTFHSYAMGWYRQAPGKERELVAAISTSGGSTYYADSVKGRFTISRDNAKNTVYLQMNSLKPEDTAVYYCAAYSISSRMNYWGQGTQVTVSS | high polyreactivity
26 | QVQLVESGGGLVQAGASLRLSCAASGSTFKYYTMGWYRQAPGKERALVAAISFSGARTYYADSVKGRFTISRDNAKNTVYLQMNSLKPEDTAVYYCAKASSYSRRYEYWGQGTQVTVSS | high polyreactivity
27 | QVQLVESGGGLVQAGASLRLSCAASGSTFYYNAMGWYRQAPGKERELVAAISKSSSRTYYADSVKGRFTISRDNAKNTVFLQMNSLKPEDTAGYYCAADAVYYHFDYWGQGTQVTVSS | high polyreactivity
28 | QVQLVESGGGLVQAGASLRLSCAASGYIFVRYAMGWYRQAPGKEREFVAAISSSGGSTRYADSVKVRFTISRDNAKNTVYLQMNSLKPEDTAVYYCAATRVARHGSPMYYWGQGTKVTVSS | high polyreactivity
29 | QVQLVESGGGLVQAGASLSLSCAASGYIFARYAMGLYIQSPGKERELVAAIRGDGGSTYYADSVKGRFTISRDNAKNTVYLQMNSLKPVDTAVYYCSTEIPWVSYYWTYYFWGQCTQVTVSS | high polyreactivity
30 | QVQLVESGGGLVQAGASLSLSSAASGYIFYRYAMGWYRQAPGKERELVAAISSNGVSTYYADSVKGRFTISRDNAKNTVYLQLISLKPEDTAVYYCARDVYASPRRYNSRYNYWGQGTQVTVSS | low polyreactivity
31 | QVQLVESGGGLVQAGCSLRFSSAASGRISNYPMGWYRQPPGKERELVAAITWSGGSTYADSVKGRFTISRDNAKNTVYLQMNSLKPEDTAVYYWAARGTRYWDYRYYAYNYWGQGTQVTVSS | high polyreactivity
32 | QVQLVESGGGLVQAGCSLRISCAASGRIIKSYASGWYRQAPGKERELVAAITWSSGSTYYADSVKGRFTISRDNAKNTVYFQMKRLKPEDTEVYYCAADPIRYRSRHKYGFWGHGTQVTVSS | low polyreactivity
33 | QVQLVESGGGLVQAGCSLRLICAASGSIFDEYAMGWYRKAPGKERELVAAITSNGGSTYADSVKGRFTISRDNAKNTVYLQMNSLKPEDTAVYYCAADYFVYWYYGYGYWGQGTQVTVSS | low polyreactivity
34 | QVQLVESGGGLVQAGCSLRLRCAASGFTFQYNGMGWYRQAPGKERELVAAINWSGGTTYYADSVKGRFTISRDNAKNTVYLLMNCLKPEDTAVYYCAKGYWRRYSPVGGLGYDYWGQGTQVSVSS | high polyreactivity
35 | QVQLVESGGGLVQAGCSLRLSCAACGSIFRAYAMGWYRQAPGKERELVADISRSGGSTYYADSVKGRFTISRDNAKNTVYLQMNSLKPEDTAFYYCAASYLGGQWRALGYDYWGQGTQVTVSS | low polyreactivity
36 | QVQLVESGGGLVQAGCSLRLSCAASGFIFQANAMGWYRQAPGKERELVAAIDDGDSTYADSVKGRFTISRDNAKNTVYLQMNSLKPEDTAVYYCNADLYGAQDRRLDYYAEGYWGQGTQVTVSS | low polyreactivity
37 | QVQLVESGGGLVQAGCSLRLSCAASGFIFSRYTMGWYRQAPGKERELVAAISRRGGNTYYADSVKGRFTISRDNAKNTVYLQMNSLKPEDTAVYYCADEYNQSFDYWGQGTQVTVSS | low polyreactivity
38 | QVQLVESGGGLVQAGCSLRLSCAASGFIILNYTMGLYRQAPGKERELVAAISNGSDRTYYADSVKGRFTISRDNAKNTVYLQMISLKTEDTAVYYCAKDRDFSSPPTESGFDYWGQGTQVNVSS | low polyreactivity
39 | QVQLVESGGGLVQAGCSLRLSCAASGFIYPVNAMGWYRQAPGKERELVAAITYSTGSTYYADSVKGRFTISRDNAKNTVYLQMNSLKPEDTAVYYCAADVPPGEVVTNDYWGQGTQVTVSS | low polyreactivity
40 | QVQLVESGGGLVQAGCSLRLSCAASGFTFGRNAMGWYRQAPGKEREFVADISGSVGSTYYADSVKGRFTISRDNAKNTVYLQMNSLKPEDTAVYYCAADTLYPRWEFDYWGQGTQVTVSS | high polyreactivity
41 | QVQLVESGGGLVQAGCSLRLSCAASGFTFHTYAMGWYRQAPGKERELVAAITGRGGSTYYADSVKGRFTISRDNAKNTVYLQMNSLKPEDTAVYYCTAYRRGWGDRMYYWGLGTQVTVSS | high polyreactivity
42 | QVQLVESGGGLVQAGCSLRLSCAASGFTFPIYAMGWYRQAPGKEREFVAAITASGDNTYYADSVKGRFTISRDNAKNTVYLQINSLKPEDTAVYYCAADWFVDWWEYDYWGQGTQVTVSS | low polyreactivity
43 | QVQLVESGGGLVQAGCSLRLSCAASGIIFAWYAMGWYRQAPGKERELVAGISQSGGRTYYADSVKGRFTISRDNAKNTVYLQMNSLKPEDTAVYYCAAERPYSRVGYYYWGQGTQVTVSS | high polyreactivity
